According to the supplement of paper PMC9170038:

Tested on: MS2 coat protein
Assay: apparent KD of MS2 coat protein; designed switch direction (-1 OFF switch, 1 ON switch): -1; higher = weaker reporter binding
Method in brief: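 Stalled E. coli RNA polymerase transcribed designed RNA switches on Illumina chips, which were then titrated with SNAP-549-labelled MS2 coat protein, doubling from 0.7 or 1.5 nM to 3 µM. Steps lasted from 0.8–1.5 h at the lowest concentration to 10–20 min at the highest. The apparent KD is each design's median over clusters of curve-fitted normalised fluorescence.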

[1] = Eterna round: R95, input ligand: microRNA oligo, concentration not stated
[2] = input ligand: microRNA oligo, concentration not stated

Row | Sequence | apparent KD of MS2 coat protein (input ligand: FMN 200 uM) [nM] | apparent KD of MS2 coat protein (input ligand: none) [nM] | apparent KD of MS2 coat protein [1] [nM] | further results
1 | CCAAGAAUAGGAUAUACACCAUGUCAGCUUCUAUACAUCGCACAUGAGGAUCACCCAUGUAGAAGGGUUCUCUC [Exclusion-2-#4] (Eterna round: R97, puzzle: Exclusion 2) | 369 | 282 |  | 
2 | CCAAGCAAAAUCAUUAACAACAUGAGGAUCACCCAUGUGUAAGCAAUUAUGUUUGGGCUCUUUAGAGCUCGUCUUAU [JR_STOV1_Sub044] (Eterna round: R97, puzzle: Sensor, turn-off variant 1) | 13.5 | 14.2 |  | 
3 | CCAAGCUGUGUGAGGAUAUGCUGAACCUUGGUUCAGCAGAAGGCACAUGAGGAUCACCCAUGUGAAGAGCUUGG [Mat - Exclusion 4 - JL Mod - D96] (puzzle: Brourd's mod of Exclusion 4) |  |  | 16.6 | 
4 | CCAAGCUUAUUCAUUAACAACAUGAGGAUCACCCAUGUGUAAGCAAUUAUGUUUGGGCUCUUUAGUGCUCGUCUUAU [Sensor-V1 #21] (Eterna round: R97, puzzle: Sensor, turn-off variant 1) | 13.7 | 13.9 |  | 
5 | CCAAGCUUAUUCAUUAACAACAUGAGGAUCACCCAUGUGUAGGCAAUUAUGUUUGGGCUCUUUAGUGCUCGUCUUAU [Sensor-V1 #22] (Eterna round: R97, puzzle: Sensor, turn-off variant 1) | 14.7 | 14.7 |  | 
6 | CCAAGCUUAUUCAUUAACCACAUGAGGAUCACCCAUGUAUAGGCAAUUAUGACUGGGCUCUUUGGUGCUCGUCUUAU [Sensor-V1 #26] (Eterna round: R97, puzzle: Sensor, turn-off variant 1) | 11.5 | 11.7 |  | 
7 | CCAAGCUUAUUCAUUAACCACAUGAGGAUCACCCAUGUCUAGGCAAUUAUGACUGGCCCAUCUGGUGCUCGUCUUAU [Sensor-V1 #31] (Eterna round: R97, puzzle: Sensor, turn-off variant 1) | 20.9 | 20.8 |  | 
8 | CCAAUGUAAGGAUAUGACAAUGGUAUCUUCGGAUACCAUUGUCAGAAGGUACAUGAGGAUCACCCAUGUACAAA [Ex4-3: 9] (puzzle: Exclusion 4) |  |  | 13.4 | 
9 | CCACGACAUGAGGAUCACCCAUGUGAGGAUAUGACCUGAAAAGCGUGAGCAGUUUGUAUCAGAAGGCGCGUGGG [salish99_ex1_r4_066] (Eterna round: R97, puzzle: Exclusion 1) | 54.4 | 67.4 |  | 
10 | CCACGACAUGAGGAUCACCCAUGUGAGGAUAUGGCCUGAAAAGCGUGAGCUGAAUCAAUCAGAAGGCGCGUGGG [salish99_ex1_r4_059_4A's] (Eterna round: R97, puzzle: Exclusion 1) | 109 | 42 |  | 
11 | CCACGUCCGUACGUAUACUUGUCUCCUGAAAGAAAGGGCACAUGAGGAUCACCCAUGUUUUUGCUCGUCUUAUGAGC [JR_Sensorv2_tov2_Sub714] (Eterna round: R96, puzzle: Sensor v2, turn-off variant 2) | 20.4 | 22.8 |  | apparent KD of MS2 coat protein [2]: 40.9 nM
12 | CCAGAAUGUGUCAGGAUAUCGGGUACCAAUAGCUUCGAGAAGGGACAUGAGGAUCACCCAUGUUCUCGGAGAGA [Eternabot (L2) Solution 76] (Eterna round: R97, puzzle: Brourd's mod of Exclusion 4) | 20.5 | 18 |  | 
13 | CCAGCGGACAAAGGAUAUUGCGGUGGCCGGCUCGGCGUACCGAGCCUACAUGAGGAUCACCCAUGUAAGAAGGUUGUCGUAGGA [Mat - Exclusion NG 2 - Mod of JL - D72] (Eterna round: R96, puzzle: Exclusion NG 2) | 72.2 | 22.7 |  | apparent KD of MS2 coat protein [2]: 12.2 nM
14 | CCAGCGUAUGUGAGGAUAUGCUGGUCCUUGGAUCAGCAGAAGGCACAUGAGGAUCACCCAUGUAGAGACGUUGG [JL bmx4 3.43] (puzzle: Brourd's mod of Exclusion 4) |  |  | 21.6 | 
15 | CCAGCGUAUGUGAGGAUAUGCUGGUCCUUGGAUCAGCAGAAGGCACAUGAGGAUCACCCAUGUGAUAACGUUGG [JL bmx4 3.39] (puzzle: Brourd's mod of Exclusion 4) |  |  | 46.6 | 
16 | CCAGCGUAUGUGAGGAUAUGCUGGUCCUUGGAUCAGCAGAAGGCACAUGAGGAUCACCCAUGUGGAAAAGUUGG [Mod of JL 23 - Jieux - Brourd's mod of Exclusion 4] (Eterna round: R97, puzzle: Brourd's mod of Exclusion 4) | 164 | 27.3 |  | 

Row | Sequence | apparent KD of MS2 coat protein (input ligand: FMN 200 uM) [nM] | apparent KD of MS2 coat protein (input ligand: none) [nM] | apparent KD of MS2 coat protein [1] [nM] | further results
17 | CCAGCGUGUGUGAGGAUAUGCUGGUCCUUGGAUCAGCAGAAGGCACAUGAGGAUCACCCAUGUGAGGACGUUGG [JL bmx4 3.32] (puzzle: Brourd's mod of Exclusion 4) |  |  | 19.9 | 
18 | CCAGCGUGUGUGAGGAUAUGCUGGUCCUUGGAUCAGCAGAAGGCACAUGAGGAUCACCCAUGUGAGUACGUUGG [JL bmx4 3.34] (puzzle: Brourd's mod of Exclusion 4) |  |  | 15 | 
19 | CCAGCUCGUGUUAGGAUAUCCAAGCUGCGGCUGGUGGAGAAGGGACAUGAGGAUCACCCAUGUAAUAAAGAAAA [On] (puzzle: Brourd's mod of Exclusion 4) |  |  | 21.4 | 
20 | CCAGGCAGUGUGAGGAUAUCGUGGUCCUUGGAUCACGAGAAGGCACAUGAGGAUCACCCAUGUGAAUAGCUUGG [Mat - Exclusion 4 - JL Mod - D100] (puzzle: Brourd's mod of Exclusion 4) |  |  | 21.9 | 
21 | CCAGGCAGUGUGAGGAUAUGCUGGUCCUUGGAUCAGCAGAAGGCACAUGAGGAUCACCCAUGUGAAGAGCUUGG [JL bmx4 3.24] (puzzle: Brourd's mod of Exclusion 4) |  |  | 24.1 | 
22 | CCAGUGUGCUUCAGGACAUGAGGAUCACCCAUGUUCGCAAAAUAGGAUAUUGGGUGUAGGCCGCGCAAGAAGGGUUAUGCGAAC [Disobeus] (Eterna round: R96, puzzle: Exclusion NG 3) | 117 | 83.4 |  | apparent KD of MS2 coat protein [2]: 79.8 nM
23 | CCAUAAAGGAAGGAUAUGCUAGACGAAAGUCUAGCAGAAGGUCCUACAUGAGGAUCACCCAUGUGGCCUCAUGG [Mat - Exclusion 6 - Eli Mod - D49] (Eterna round: R97, puzzle: Exclusion 6) | 116 | 198 |  | 
24 | CCAUAGUGAGGAUAUGUAAACGUGUUGGCGAAAUCAGCACGGCAGAAGGCACAUGAGGAUCACCCAUGUCCUGA [Eternabot (L2) Solution 45] (Eterna round: R97, puzzle: Exclusion 4) | 25.9 | 20.8 |  | 
25 | CCAUAUAGGCGAGGAUAUACGCACCACUAACUAGUAGAAGGCGCACAUGAGGAUCACCCAUGUGAUUUCUCAAUAUUAUACAUC [Prohibition 72 - Jieux - Exclusion NG 1] (Eterna round: R96, puzzle: Exclusion NG 1) | 174 | 157 |  | apparent KD of MS2 coat protein [2]: 107 nM
26 | CCAUCGAGUGUGAGGAUAUGCUGGUCCAUAGAUCAGCAGAAGGCACAUGAGGAUCACCCAUGUGGAGACGGUGG [Mat - Exclusion 4 - JL Mod - D78] (Eterna round: R96, puzzle: Brourd's mod of Exclusion 4) |  |  |  | apparent KD of MS2 coat protein [2]: 31 nM
27 | CCAUCGAGUGUGAGGAUAUGCUGGUCCAUAGAUCAGCAGAAGGCACAUGAGGAUCACCCAUGUGGAGACGGUGG [Mat - Exclusion 4 - JL Mod - D78] (puzzle: Brourd's mod of Exclusion 4) |  |  | 34.4 | apparent KD of MS2 coat protein (Eterna round: R95, input ligand: FMN 200 uM): 418 nM; apparent KD of MS2 coat protein (Eterna round: R95, input ligand: none): 36.6 nM
28 | CCAUCGAGUGUGAGGAUAUGCUGGUCCUUGGAUCAGCAGAAGGCACAUGAGGAUCACCCAUGUGGAGACGGUGG [JL bmx4 3.18] (puzzle: Brourd's mod of Exclusion 4) |  |  | 44.3 | 
29 | CCAUCGUGUGUGAGGAUAUGCUGGUCCUUGGAUCAGCAGAAGGCACAUGAGGAUCACCCAUGUGAAUACGGUGG [JL bmx4 3.21] (puzzle: Brourd's mod of Exclusion 4) |  |  | 17.8 | 
30 | CCCAAGUCAGGAUAUGGAACACAGAGACAUCUCUGUGCCCACCAGAAGGGACAUGAGGAUCACCCAUGUGAUGA [Soesat] (puzzle: Exclusion 4) |  |  | 56.6 | 
31 | CCCACAAGCUUUUUGCUCGACAUGAGGAUCACCCAUGUAAAAUGGGUAAAUUUAAAUUUAAAUUUAUUUAAAUUGGG [-18.1, -41.9 kcal, A 34%] (Eterna round: R97, puzzle: Sensor, turn-off variant 1) | 80.9 | 102 |  | 
32 | CCCACAAGCUUUUUGCUCGACAUGAGGAUCACCCAUGUUGAAUGGGUUAUAUAUAUAUGAAACAUAUAUAUAUACCU [-24.7, -47.5 kcal, A 32%] (Eterna round: R97, puzzle: Sensor, turn-off variant 1) | 20.4 | 20.2 |  | 
